Experimental data: patent US9958461B2, “Detection of protein to protein interactions” (THE GOVERNING COUNCIL OF THE UNIVERSITY OF TORONTO, priority 2013, dated 2018)

Tests used:
EGFR-L858R = target: T1, EGFR-L858R (Homo sapiens, UniProt P00533, L858R); experiment: MaMTH EGFR-interactor screen, lentiviral preys against EGFR-L858R bait (interaction score); assay type: cell-based; details: MaMTH interaction score of prey with EGFR-L858R bait
T1 construct: with the advantage of testing full-length integral membrane proteins; (GGGGS)2 linker-Cub (human ubiquitin aa 35-76)-GAL4(1-147)-mNFkB(364-550) (C); expressed in transfected cells
Outline: (§1)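 5×GAL4UAS-luciferase HEK293T reporter cells were lentivirally infected with preys (MOI ~0.3-0.4) and puromycin-selected ≥48 h. They were then transfected in triplicate with the EGFR bait, and luciferase was read 24 h later. Score is fold-change over averaged negative-control preys; >1 denotes interaction.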

EGFR-Wt [1] = experiment: MaMTH EGFR-interactor screen, lentiviral preys against EGFR-wildtype bait (interaction score); assay type: cell-based, human; details: ratio of EGFR-Wt mean to EGFR-L858R mean interaction score
Outline: as §1

EGFR-Wt [2] = target: T2, EGFR-Wt (Homo sapiens, UniProt P00533); experiment: as above; assay type: cell-based; details: MaMTH interaction score of prey with EGFR-Wt bait, mean
T2 construct: with the advantage of testing full-length integral membrane proteins; (GGGGS)2 linker-Cub (human ubiquitin aa 35-76)-GAL4(1-147)-mNFkB(364-550) (C); expressed in transfected cells
Outline: as §1

Molecule	EGFR-L858R mean (EGFR-L858R)	Wt/L858R (EGFR-Wt [1])	EGFR-Wt mean (EGFR-Wt [2])
DOK1 (protein, UniProt Q99704 1-481, looked up) Docking protein 1: MDGAVMEGPLFLQSQRFGTKRWRKTWAVLYPASPHGVARLEFFDHKGSSSGGGRGSSRRLDCKVIRLAECVSVAPVTVETPPEPGATAFRLDTAQRSHLLAADAPSSAAWVQTLCRNAFPKGSWTLAPTDNPPKLSALEMLENSLYSPTWEGSQFWVTVQRTEAAERCGLHGSYVLRVEAERLTLLTVGAQSQILEPLLSWPYTLLRRYGRDKVMFSFEAGRRCPSGPGTFTFQTAQGNDIFQAVETAIHRQKAQGKAGQGHDVLRADSHEGEVAEGKLPSPPGPQELLDSPPALYAEPLDSLRIAPCPSQDSLYSDPLDSTSAQAGEGVQRKKPLYWDLYEHAQQQLLKAKLTDPKEDPIYDEPEGLAPVPPQGLYDLPREPKDAWWCQARVKEEGYELPYNPATDDYAVPPPRSTKPLLAPKPQGPAFPEPGTATGSGIKSHNSALYSQVQKSGASGSWDCGLSRVGTDKTGVKSEGST	13.10	0.39	5.17
HSPA4 (protein, UniProt P34932 1-840, looked up) Heat shock 70 kDa protein 4: MSVVGIDLGFQSCYVAVARAGGIETIANEYSDRCTPACISFGPKNRSIGAAAKSQVISNAKNTVQGFKRFHGRAFSDPFVEAEKSNLAYDIVQLPTGLTGIKVTYMEEERNFTTEQVTAMLLSKLKETAESVLKKPVVDCVVSVPCFYTDAERRSVMDATQIAGLNCLRLMNETTAVALAYGIYKQDLPALEEKPRNVVFVDMGHSAYQVSVCAFNRGKLKVLATAFDTTLGGRKFDEVLVNHFCEEFGKKYKLDIKSKIRALLRLSQECEKLKKLMSANASDLPLSIECFMNDVDVSGTMNRGKFLEMCNDLLARVEPPLRSVLEQTKLKKEDIYAVEIVGGATRIPAVKEKISKFFGKELSTTLNADEAVTRGCALQCAILSPAFKVREFSITDVVPYPISLRWNSPAEEGSSDCEVFSKNHAAPFSKVLTFYRKEPFTLEAYYSSPQDLPYPDPAIAQFSVQKVTPQSDGSSSKVKVKVRVNVHGIFSVSSASLVEVHKSEENEEPMETDQNAKEEEKMQVDQEEPHVEEQQQQTPAENKAESEEMETSQAGSKDKKMDQPPQAKKAKVKTSTVDLPIENQLLWQIDREMLNLYIENEGKMIMQDKLEKERNDAKNAVEEYVYEMRDKLSGEYEKFVSEDDRNSFTLKLEDTENWLYEDGEDQPKQVYVDKLAELKNLGQPIKIRFQESEERPKLFEELGKQIQQYMKIISSFKNKEDQYDHLDAADMTKVEKSTNEAMEWMNNKLNLQNKQSLTMDPVVKSKEIEAKIKELTSTCSPIISKPKPKVEPPKEEQKNAEQNGPVDGQGDNPGPQAAEQGTDTAVPSDSDKKLPEMDID	2.48	0.46	1.13
LCP2 (protein, UniProt Q13094 1-533, looked up) Lymphocyte cytosolic protein 2: MALRNVPFRSEVLGWDPDSLADYFKKLNYKDCEKAVKKYHIDGARFLNLTENDIQKFPKLRVPILSKLSQEINKNEERRSIFTRKPQVPRFPEETESHEEDNGGWSSFEEDDYESPNDDQDGEDDGDYESPNEEEEAPVEDDADYEPPPSNDEEALQNSILPAKPFPNSNSMYIDRPPSGKTPQQPPVPPQRPMAALPPPPAGRNHSPLPPPQTNHEEPSRSRNHKTAKLPAPSIDRSTKPPLDRSLAPFDREPFTLGKKPPFSDKPSIPAGRSLGEHLPKIQKPPLPPTTERHERSSPLPGKKPPVPKHGWGPDRRENDEDDVHQRPLPQPALLPMSSNTFPSRSTKPSPMNPLPSSHMPGAFSESNSSFPQSASLPPYFSQGPSNRPPIRAEGRNFPLPLPNKPRPPSPAEEENSLNEEWYVSYITRPEAEAALRKINQDGTFLVRDSSKKTTTNPYVLMVLYKDKVYNIQIRYQKESQVYLLGTGLRGKEDFLSVSDIIDYFRKMPLLLIDGKNRGSRYQCTLTHAAGYP	6.29	0.43	2.71
GAB1 (protein, UniProt Q13480 2-694, looked up) GRB2-associated-binding …: SGGEVVCSGWLRKSPPEKKLKRYAWKRRWFVLRSGRLTGDPDVLEYYKNDHAKKPIRIIDLNLCQQVDAGLTFNKKEFENSYIFDINTIDRIFYLVADSEEEMNKWVRCICDICGFNPTEEDPVKPPGSSLQAPADLPLAINTAPPSTQADSSSATLPPPYQLINVPPHLETLGIQEDPQDYLLLINCQSKKPEPTRTHADSAKSTSSETDCNDNVPSHKNPASSQSKHGMNGFFQQQMIYDSPPSRAPSASVDSSLYNLPRSYSHDVLPKVSPSSTEADGELYVFNTPSGTSSVETQMRHVSISYDIPPTPGNTYQIPRTFPEGTLGQTSKLDTIPDIPPPRPPKPHPAHDRSPVETCSIPRTASDTDSSYCIPTAGMSPSRSNTISTVDLNKLRKDASSQDCYDIPRAFPSDRSSSLEGFHNHFKVKNVLTVGSVSSEELDENYVPMNPNSPPRQHSSSFTEPIQEANYVPMTPGTFDFSSFGMQVPPPAHMGFRSSPKTPPRRPVPVADCEPPPVDRNLKPDRKVKPAPLEIKPLPEWEELQAPVRSPITRSFARDSSRFPMSPRPDSVHSTTSSSDSHDSEENYVPMNPNLSSEDPNLFGSNSLDGGSSPMIKPKGDKQVEYLDLDLDSGKSTPPRKQKSSGSGSSVADERVDYVVVDQQKTLALKSTREAWTDGRQSTESETPAKSVK	2.30	0.41	0.93
JUP (protein, UniProt P14923 1-745, looked up) Junction plakoglobin: MEVMNLMEQPIKVTEWQQTYTYDSGIHSGANTCVPSVSSKGIMEEDEACGRQYTLKKTTTYTQGVPPSQGDLEYQMSTTARAKRVREAMCPGVSGEDSSLLLATQVEGQATNLQRLAEPSQLLKSAIVHLINYQDDAELATRALPELTKLLNDEDPVVVTKAAMIVNQLSKKEASRRALMGSPQLVAAVVRTMQNTSDLDTARCTTSILHNLSHHREGLLAIFKSGGIPALVRMLSSPVESVLFYAITTLHNLLLYQEGAKMAVRLADGLQKMVPLLNKNNPKFLAITTDCLQLLAYGNQESKLIILANGGPQALVQIMRNYSYEKLLWTTSRVLKVLSVCPSNKPAIVEAGGMQALGKHLTSNSPRLVQNCLWTLRNLSDVATKQEGLESVLKILVNQLSVDDVNVLTCATGTLSNLTCNNSKNKTLVTQNSGVEALIHAILRAGDKDDITEPAVCALRHLTSRHPEAEMAQNSVRLNYGIPAIVKLLNQPNQWPLVKATIGLIRNLALCPANHAPLQEAAVIPRLVQLLVKAHQDAQRHVAAGTQQPYTDGVRMEEIVEGCTGALHILARDPMNRMEIFRLNTIPLFVQLLYSSVENIQRVAAGVLCELAQDKEAADAIDAEGASAPLMELLHSRNEGTATYAAAVLFRISEDKNPDYRKRVSVELTNSLFKHDPAAWEAAQSMIPINEPYGDDMDATYRPMYSSDVPLDPLEMHMDMDGDYPIDTYSDGLRPPYPTADHMLA	2.51	0.39	0.98
TNS3 (protein, UniProt Q68CZ2 1-1445, looked up) Tensin-3: MEEGHGLDLTYITERIIAVSFPAGCSEESYLHNLQEVTRMLKSKHGDNYLVLNLSEKRYDLTKLNPKIMDVGWPELHAPPLDKMCTICKAQESWLNSNLQHVVVIHCRGGKGRIGVVISSYMHFTNVSASADQALDRFAMKKFYDDKVSALMQPSQKRYVQFLSGLLSGSVKMNASPLFLHFVILHGTPNFDTGGVCRPFLKLYQAMQPVYTSGIYNVGPENPSRICIVIEPAQLLKGDVMVKCYHKKYRSATRDVIFRLQFHTGAVQGYGLVFGKEDLDNASKDDRFPDYGKVELVFSATPEKIQGSEHLYNDHGVIVDYNTTDPLIRWDSYENLSADGEVLHTQGPVDGSLYAKVRKKSSSDPGIPGGPQAIPATNSPDHSDHTLSVSSDSGHSTASARTDKTEERLAPGTRRGLSAQEKAELDQLLSGFGLEDPGSSLKEMTDARSKYSGTRHVVPAQVHVNGDAALKDRETDILDDEMPHHDLHSVDSLGTLSSSEGPQSAHLGPFTCHKSSQNSLLSDGFGSNVGEDPQGTLVPDLGLGMDGPYERERTFGSREPKQPQPLLRKPSVSAQMQAYGQSSYSTQTWVRQQQMVVAHQYSFAPDGEARLVSRCPADNPGLVQAQPRVPLTPTRGTSSRVAVQRGVGSGPHPPDTQQPSPSKAFKPRFPGDQVVNGAGPELSTGPSPGSPTLDIDQSIEQLNRLILELDPTFEPIPTHMNALGSQANGSVSPDSVGGGLRASSRLPDTGEGPSRATGRQGSSAEQPLGGRLRKLSLGQYDNDAGGQLPFSKCAWGKAGVDYAPNLPPFPSPADVKETMTPGYPQDLDIIDGRILSSKESMCSTPAFPVSPETPYVKTALRHPPFSPPEPPLSSPASQHKGGREPRSCPETLTHAVGMSESPIGPKSTMLRADASSTPSFQQAFASSCTISSNGPGQRRESSSSAERQWVESSPKPMVSLLGSGRPTGSPLSAEFSGTRKDSPVLSCFPPSELQAPFHSHELSLAEPPDSLAPPSSQAFLGFGTAPVGSGLPPEEDLGALLANSHGASPTPSIPLTATGAADNGFLSHNFLTVAPGHSSHHSPGLQGQGVTLPGQPPLPEKKRASEGDRSLGSVSPSSSGFSSPHSGSTISIPFPNVLPDFSKASEAASPLPDSPGDKLVIVKFVQDTSKFWYKADISREQAIAMLKDKEPGSFIVRDSHSFRGAYGLAMKVATPPPSVLQLNKKAGDLANELVRHFLIECTPKGVRLKGCSNEPYFGSLTALVCQHSITPLALPCKLLIPERDPLEEIAESSPQTAANSAAELLKQGAACNVWYLNSVEMESLTGHQAIQKALSITLVQEPPPVSTVVHFKVSAQGITLTDNQRKLFFRRHYPVNSVIFCALDPQDRKWIKDGPSSKVFGFVARKQGSATDNVCHLFAEHDPEQPASAIVNFVSKVMIGSPKKV	3.12	0.45	1.39
ARHGEF7 (protein, UniProt Q14155 1-803, looked up) Rho guanine nucleotide …: MNSAEQTVTWLITLGVLESPKKTISDPEGFLQASLKDGVVLCRLLERLLPGTIEKVYPEPRSESECLSNIREFLRGCGASLRLELLFPPSQPPQHLVTTILLSASTFDANDLYQGQNFNKVLSSLVTLNKVTADIGLGSDSVCARPSSHRIKSFDSLGSQSLHTRTSKLFQGQYRSLDMTDNSNNQLVVRAKFNFQQTNEDELSFSKGDVIHVTRVEEGGWWEGTLNGRTGWFPSNYVREVKASEKPVSPKSGTLKSPPKGFDTTAINKSYYNVVLQNILETENEYSKELQTVLSTYLRPLQTSEKLSSANISYLMGNLEEICSFQQMLVQSLEECTKLPEAQQRVGGCFLNLMPQMKTLYLTYCANHPSAVNVLTEHSEELGEFMETKGASSPGILVLTTGLSKPFMRLDKYPTLLKELERHMEDYHTDRQDIQKSMAAFKNLSAQCQEVRKRKELELQILTEAIRNWEGDDIKTLGNVTYMSQVLIQCAGSEEKNERYLLLFPNVLLMLSASPRMSGFIYQGKLPTTGMTITKLEDSENHRNAFEISGSMIERILVSCNNQQDLQEWVEHLQKQTKVTSVGNPTIKPHSVPSHTLPSHPVTPSSKHADSKPAPLTPAYHTLPHPSHHGTPHTTINWGPLEPPKTPKPWSLSCLRPAPPLRPSAALCYKEDLSKSPKTMKKLLPKRKPERKPSDEEFASRKSTAALEEDAQILKVIEAYCTSAKTRQTLNSTWQGTDLMHNHVLADDDQPSLDSLGRRSSLSRLEPSDLSEDSDYDSIWTAHSYRMGSTSRKSCCSYISHQN	2.76	0.45	1.24
